Experimental data as given in a protein production outcome set (Wang et al. 2014).

Assay: label from the status in PepcDB records

Row | Sequence | protein production
1 | MSLSLPLFYAPDIEQSDRLPDDEAGHILRVLRMQAGDRLRLTDGRGSFFDAVIETADRKSCYVSVCGQESWQKPWRDRITIAIAPTKQSERMEWMLEKLVEIGVDEVVFIESEHSERRRIKAERLERIAISAMKQSLKASFPVIRVNIPIQTVIADTPKAAVRLIAYVDEAVRAEITQGRGYPSDFYHVGQDVLILIGPEGDFSPSEVESALLAGFAPVSLGESRLRTETAGLVACQWIHTLQACCRIGEGHHHHHH | not failed
2 | MSLSNVQVNSSQRDEDSFIKGVKDCIPTLLGYLSIGIAAGVIQKTAGLSIAEITLMSLILYAGSGQFIAAGMIATSSSLTAIIITIFFVNLRHILLSAALAPYFRHLSPFRNMLVGSLLTDETFGVAISEAAKKKQISERWMHGLNITAYINWLVANLAGAFLAQWISNPEEFGLGFALPAMFIGILILTMLGRSTIKLDIIVAIIAVVIAVGSSFMLSSSMGVIVATIIASTIGMVVEKWK | failed
3 | MSLSRRLTMHWFAQAPANIALIKYMGKKDENSNLPDNSSLSYTLSNLLSSVKLEKLPTKKDIWEPLTIPGAPEFNLSVEAQKRFIDHLVRLKEYFGYVGGFLIQSSNNFPHSSGLASSASSFAALTKCASIALSELTQKPLPSIDEQAQLSRLGSGSSCRSFYAPWALWTGDKVSAIDLPYKDLLHQVIVISSQEKEIPSRVAHKLVKTSPFYETRSERAEANLKLLLNAFENKDWTSIYQICWHEFLDMHQLFKTCEKPFSYITDNTLHILSVIEKFWNEKGDGPVVTMDAGPNVHLLYRSDQTDLARQFKSDHLVGNYDVLEGHHHHHH | not failed
4 | MSLSTWISYTIACILLISPPGPTVTYLITTSMTHGKKTAYEIVWGSFWGGLVCLILSFIGIGAILKTSGTLYAILRLLGIAYLIYLGIKSFLDANKVKDKTEKMVPPEKGEAFKNGFLLIFLNPKNIIFFASFLPQFINHNSPFLLQTTILSLTYLIVGLINDYLYSFFASNIGNVLGKHSEKWIAYIGGVAMILSAIIVVFQNF | failed
5 | MSLSVMFDPQSYPYPSRRNVVYAKNGMVATSQPLAAQAGLDILKAGGNAIDAAIATATALTVLEPTSNGIGSDAFALVWTKGKLHGLNGSGRAPMSLTMEAVKAKGYEQELPPYGVIPVTVPGAPGAWAELAKMYGNLPLAASLAPAIRYAEEGYPVTPTLAKYWKAAYDRFKTEWTDDVYQPWFDTFAPKGRAPRVGEVWRSQGHADTLRSIAESNGESFYRGELADQIHAFFDKHGGYLTKEDLACYRPEWVEPISIDYRGYRVWEIPPNGQGLVALEALNIVKGFEFYHKDTVDTYHKQIEAMKLAFVDGMKYVTEPSDMSVSVEQLLSDEYATERRKEIGEQALTPEPGTPPRGGTVYLATADGDGNMVSFIQSNYMGFGSGVVVPGTGIAMQNRGHNFSLDPNHDNALKPGKRTYHTIIPGFLTKNDQPIGPFGVMGGFMQPQGHMQVMMNTIDFGLNPQAALDAPRWQWTNGKQVQVEPTFPVDIAQALVRRGHKIQVVLDEGAFGRGQIIWRDPTTGVLAGGTEPRTDGQVAAWEGHHHHHH | not failed
6 | MSLTEPRIVATYHIASDAERIEQRALALAIEQSVECPLEAIGDPAIVANIVGRVEDVAELQPGRYAVRIGLAAATAPAEPGQLLNMLFGNSSIQPDIALADVELPAHYLTAFGGPRVGLAGIRTLTGAQSRALTASALKPQGLSPAALASIAHQLALGGVDLIKDDHGLADQAFSPFAERAAAVGKAVREANAARGGRTLYAPNISGTLDDMRRQLGVIRDEGIGAVLVAPMIVGVSNFHAIVKEAAGLVVVAHPAMAGAAKIAAPLLLGRLFRLFGADATVFPNYGGRFAYSTASCLALAQAARDPFGKLNACIPTPAGGIMLQRVNELLRFYGQDVMLLIGGSLLASRERLTEQASRFVNKVADYGQREGHHHHHH | not failed
7 | MSLTEYVHGYSEREALRLSEQAETLEKLLHHDTVYPPGAKVLEAGCGIGAQTVILAKNNPDAEITSIDISPESLEKARENTEKNGIKNVKFLQANIFSLPFEDSSFDHIFVCFVLEHLQSPEEALKSLKKVLKPGGTITVIEGDHGSCYFHPEGKKAIEAWNCLIRVQAYMKGNSLVGRQIYPLLQESGFEKIRVEPRMVYIDSSKPELVDGFILKTIIPMVEGVKEQSLKMQIIKEEEWEKGIEELHKTAEHGGTFCYTFFKGWGTKEGHHHHHH | not failed
8 | MSLTIKLIAIDIDGTLLNEKNELAQETIDAVQAAKAQGIKVVLCTGRPLTGVQPYLDAMGISGDDQYAITFNGSVAQTISGKVLTNHSLTYEDYIDLEAWARKVRAHFQIETPDYIYTANKDISAYTIAESYLVRMLIRYREVSETPRDLTISKAMFVDYPQVIEQVKANMPQDFKDRFSVVQSAPYFIEVMNRRASKGGTLSELVDQLGLTADDVMTLGDQGNDLTMIKYAGLGVAMGNAIDEVKEAAQAVTLTNAENGVAAAIRKYALNEGHHHHHH | not failed
9 | MSLTMVSEVQPVSPASLDAPLENAVEIIETVISSLHQGDAPLVGQTDSGKIWMFRYGSAEVFVQLSGHTEEDFLTIWSPVLPLPVADELALYRKLLTLNWLTTFEAHFAIAEEQVQVVASRTLGGITAGEISRLITIVATLADDYDDALRAEFKGEGHHHHHH | not failed
10 | MSLTNHHPSSTGPQHPYRAGWIHFTNVAPILDSLELPPGVTAITGVPTQMNAALLSGEVDIANVSAVEFIRHADTLAALPDFSVAVLGPVYSVNLFHTCPLPELRRVALTSQSAMSVALLEVLLRQKGLSPVLERAEGTAESLLAAGYDGVLRIGDDALREWYGVVGPLTPERTMTSLPHTGRGITVTDLAQEWFDLTGHPFTFAVWAYRKDNPPPAALLQAMREARRRGIGHLAEVSQRHAEKLGLPERVVQHYLWNFRYHLEAPDRLGLREFADLAVPGHAELTFGAREEAEGHHHHHH | not failed
11 | MSLTRDAASITPARVRAHVFRYPVSTPVKTSFGTMHDRPAVLVEVEDSDGAVGWGEVWCNFPACGAEHRARLVETVLAPLLTARAFADPAQAFAHLEARTAVLAIQTGEPGPLAQAIAGLDIALCDLAARRAGQPLWAWLGGSGDRIGVYASGINPENPEDVVARKAAEGYRAFKLKVGFDDARDVRNALHVRELLGAATPLMADANQGWDLPRARQMAQRLGPAQLDWLEEPLRADRPAAEWAELAQAAPMPLAGGENIAGVAAFETALAARSLRVMQPDLAKWGGFSGCLPVARAVVAAGLRYCPHYLGAGIGLQASAHLLAAVPGLASPGLLEVDANDNPLRSLLSPALATLHEGRITLGGAPGLGVTPDLAALRAACAAREGHHHHHH | not failed
12 | MSLTTPTMIAAVVEEANGPFVLRKLARPQPAPGQVLVQIEASGTNPLDAKIRAGEAPHAQQPLPAILGMDLAGTVVAVGPEVDSFRVGDAVFGLTGGVGGLQGTHAQFAAVDARLLASKPAALTMRQASVLPLVFITAWEGLVDRAQVQDGQTVLIQGGGGGVGHVAIQIALARGARVFATARGSDLEYVRDLGATPIDASREPEDYAAEHTAGQGFDLVYDTLGGPVLDASFSAVKRFGHVVSCLGWGTHKLAPLSFKQATYSGVFTLHTLLANEGLAHFGEMLREADALVQTGKLAPRLDPRTFSIAEIGSAYDAVLGRNDVPRQRGKIAITVEGHHHHHH | not failed
13 | MSLTTVGIRGTFFDFVDDPWKHIGNEQAAARFHQDGLMVVTDGVIKAFGPYEKIAAAHPGVEITHIKDRIIVPGFIDGHIHLPQTRVLGAYGEQLLPWLQKSIYPEEIKYKDRNYAREGVKRFLDALLAAGTTTCQAFTSSSPVATEELFEEASRRNMRVIAGLTGIDRNAPAEFIDTPENFYRDSKRLIAQYHDKGRNLYAITPRFAFGASPELLKACQRLKHEHPDCWVNTHISENPAECSGVLVEHPDCQDYLGVYEKFDLVGPKFSGGHGVYLSNNEFRRMSKKGAAVVFCPCSNLFLGSGLFRLGRATDPEHRVKMSFGTDVGGGNRFSMISVLDDAYKVGMCNNTLLDGSIDPSRKDLAEAERNKLSPYRGFWSVTLGGAEGLYIDDKLGNFEPGKEADFVALDPNGGQLAQPWHQSLIADGAGPRTVDEAASMLFAVMMVGDDRCVDETWVMGKRLYKKSEGHHHHHH | not failed
14 | MSMKGKETMSNEKIVVGKFGATYGIRGWLKVFSYTDNAESIFDYSPWYINQKGKWVEYKVESWKRHNKGMVAKLEGMDVREDAHLMTNFEIAIDPAVLPELSEDEFYWRELFGMHVVTTKGYDLGVVTDMLETGSNDVLVVKANLKDAFGQKERLIPFLEEQVIIKVDREAQRIEVDWDPGFLEHHHHHH | not failed
